Drawing on publication PMC2645937, this text covers percent cross-linked and Kd for 4 molecules.

Usually Kd stands for the concentration at which binding is half-saturated.

Experiment [1] concerns the target E. coli ribonucleotide reductase large subunit α2 (E. coli) (UniProt P00452). The experiment is described as follows: cross-linking.
Experiment [2] deals with ribonucleotide reductase β2 (Escherichia coli) (UniProt P69924). Conditions: cited from earlier work.
For experiment [3], the target named is DAN-β2(V351C): (His)6-β2-C268S/C305S/V351C labelled with dimethylaminonaphthalene (E. coli). The experiment can be described thus: other fluorescence titration.

In the case of “BP-β2(V365C): (His)6-β2-C268S/C305S/V365C labelled with benzophenone (enzyme)”, in experiment [1], the percent cross-linked came out at 19%.

For “BP-β2(Y356C): (His)6-β2-C268S/C305S/Y356C labelled with benzophenone (enzyme)”, the percent cross-linked in experiment [1] amounted to 9%.

In the case of “ribonucleotide reductase α2 (from UniProt P00452)”, in experiment [2], the Kd was 200 nM.

B1: E. coli ribonucleotide reductase large subunit α2 (enzyme)
chain: MNQNLLVTKRDGSTERINLDKIHRVLDWAAEGLHNVSISQVELRSHIQFYDGIKTSDIHETIIKAAADLISRDAPDYQYLAARLAIFHLRKKAYGQFEPPALYDHVVKMVEMGKYDNHLLEDYTEEEFKQMDTFIDHDRDMTFSYAAVKQLEGKYLVQNRVTGEIYESAQFLYILVAACLFSNYPRETRLQYVKRFYDAVSTFKISLPTPIMSGVRTPTRQFSSCVLIECGDSLDSINATSSAIVKYVSQRAGIGINAGRIRALGSPIRGGEAFHTGCIPFYKHFQTAVKSCSQGGVRGGAATLFYPMWHLEVESLLVLKNNRGVEGNRVRHMDYGVQINKLMYTRLLKGEDITLFSPSDVPGLYDAFFADQEEFERLYTKYEKDDSIRKQRVKAVELFSLMMQERASTGRIYIQNVDHCNTHSPFDPAIAPVRQSNLCLEIALPTKPLNDVNDENGEIALCTLSAFNLGAINNLDELEELAILAVRALDALLDYQDYPIPAAKRGAMGRRTLGIGVINFAYYLAKHGKRYSDGSANNLTHKTFEAIQYYLLKASNELAKEQGACPWFNETTYAKGILPIDTYKKDLDTIANEPLHYDWEALRESIKTHGLRNSTLSALMPSETSSQISNATNGIEPPRGYVSIKASKDGILRQVVPDYEHLHDAYELLWEMPGNDGYLQLVGIMQKFIDQSISANTNYDPSRFPSGKVPMQQLLKDLLTAYKFGVKTLYYQNTRDGAEDAQDDLVPSIQDDGCESGACKI
In the case of B1, in experiment [3], the Kd stood at 380 nM.
